We go through one molecule from US20220281969A1 (ANTLERA THERAPEUTICS, published 2022).

This assay has as its target T1, recombinant human LRP6-Fc chimera (human, UniProt O75581 20-1370).
T1 construct: extracellular domain; also called human LRP6 chimera; not shown: Fc part of the chimera
T1 sequence (looked up): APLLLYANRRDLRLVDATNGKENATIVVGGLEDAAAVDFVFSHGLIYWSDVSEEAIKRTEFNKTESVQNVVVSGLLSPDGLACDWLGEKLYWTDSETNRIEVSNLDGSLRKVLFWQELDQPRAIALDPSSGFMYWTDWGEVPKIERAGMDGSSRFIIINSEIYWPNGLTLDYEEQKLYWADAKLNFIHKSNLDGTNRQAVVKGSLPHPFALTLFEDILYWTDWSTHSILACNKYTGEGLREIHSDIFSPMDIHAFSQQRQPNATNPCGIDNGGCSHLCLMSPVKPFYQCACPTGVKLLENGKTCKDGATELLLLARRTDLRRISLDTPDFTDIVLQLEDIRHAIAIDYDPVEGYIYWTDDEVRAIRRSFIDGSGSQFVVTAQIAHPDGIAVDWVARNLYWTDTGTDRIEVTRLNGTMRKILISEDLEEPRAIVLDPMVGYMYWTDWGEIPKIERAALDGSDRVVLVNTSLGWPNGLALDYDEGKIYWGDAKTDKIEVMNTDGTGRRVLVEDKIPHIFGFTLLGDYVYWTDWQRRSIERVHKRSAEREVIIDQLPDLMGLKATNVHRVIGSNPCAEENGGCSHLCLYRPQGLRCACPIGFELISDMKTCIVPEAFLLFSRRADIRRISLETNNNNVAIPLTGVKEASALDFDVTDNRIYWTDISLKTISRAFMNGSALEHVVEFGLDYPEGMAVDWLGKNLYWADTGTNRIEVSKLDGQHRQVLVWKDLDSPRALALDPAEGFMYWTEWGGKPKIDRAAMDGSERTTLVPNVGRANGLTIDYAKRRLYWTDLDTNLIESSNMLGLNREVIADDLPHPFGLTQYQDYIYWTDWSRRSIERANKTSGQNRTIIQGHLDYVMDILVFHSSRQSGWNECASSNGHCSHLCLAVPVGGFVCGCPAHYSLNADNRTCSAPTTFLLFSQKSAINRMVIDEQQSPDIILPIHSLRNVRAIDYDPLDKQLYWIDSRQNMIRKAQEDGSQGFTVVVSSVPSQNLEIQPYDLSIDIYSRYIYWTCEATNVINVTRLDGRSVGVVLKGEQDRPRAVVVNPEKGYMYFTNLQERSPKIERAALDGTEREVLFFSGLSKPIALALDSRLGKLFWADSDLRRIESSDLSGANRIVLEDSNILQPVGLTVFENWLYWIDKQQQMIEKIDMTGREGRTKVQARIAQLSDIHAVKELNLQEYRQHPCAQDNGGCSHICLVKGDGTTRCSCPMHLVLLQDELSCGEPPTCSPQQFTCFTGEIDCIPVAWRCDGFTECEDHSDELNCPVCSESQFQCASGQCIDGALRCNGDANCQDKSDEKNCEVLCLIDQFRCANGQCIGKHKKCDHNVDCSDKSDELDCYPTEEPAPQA
Kind of assay: single-point ELISA, IgG1 on coated antigen. As to the method: FIGS. 1a and 1b show LRP six antibodies. (A) The amino acid sequences of the complementarity determining regions (CDR) of the heavy (H) and the light (L) chains are presented. The antibodies were grouped into unique epitopes as determined by competitive ELISAs. (B) Single-point ELISAs were performed on 96-well Maxisorb immune plates coated with the […] of mouse LRP5, mouse LRP6 and human LRP6 chimeras. The plates were incubated with the purified Fab or IgG1 at the concentrations indicated followed by incubation with horseradish peroxidase (HRP)-conjugated anti-kappa antibody. The wells were washed eight times followed by incubation with 3,3′,5,5′-tetramethylbenzidine/H₂O₂ peroxidase (TMB) substrate for 5-10 min. The reaction was stopped by adding one M H₃PO₄ and the absorbance was measured spectrometrically at 450 nm in a microtiter plate reader.
The full length IgG1s were purified and a single-point ELISA was done to determine the specificity of the antibodies. […] A multipoint competitive ELISA was used to determine the relative affinities of the antibodies to the recombinant antigen.
Background: ELISA stands for enzyme-linked immunosorbent assay.

B1: LRP6-E3 IgG1 antibody (antibody, V domains shown)
VH: EVQLVESGGGLVQPGGSLRLSCAASGFNLYYYSMHWVRQAPGKGLEWVASIYSSYGYTYYADSVKGRFTISADTSKNTAYLQMNSLRAEDTAVYYCARYAGYYYYPWAYYGWPFSGLDYWGQGTLVTVSS
VL: DIQMTQSPSSLSASVGDRVTITCRASQSVSSAVAWYQQKPGKAPKLLIYSASSLYSGVPSRFSGSRSGTDFTLTISSLQPEDFATYYCQQAGSAPYHLITFGQGTKVEIKR
notes: Tested as purified full length IgG1
As to B1, the binding result is recorded as “no binding”.
